Assays:
[1] = biological target: T1, endogenous TET1 in C4-2CON and C4-2ENZ-R cells (human, UniProt Q8NFU7 1-2136, limits assumed); test: co-immunoprecipitation of endogenous proteins, C4-2CON and C4-2ENZ-R cells
T1 construct: Endogenous protein in cell lysate for co-IP

[2] = biological target: T2, endogenous TET3 in C4-2CON and C4-2ENZ-R cells (human, UniProt O43151 1-1795, limits assumed); test: as above
T2 construct: Endogenous protein in cell lysate for co-IP
T2 sequence (O43151 whole entry): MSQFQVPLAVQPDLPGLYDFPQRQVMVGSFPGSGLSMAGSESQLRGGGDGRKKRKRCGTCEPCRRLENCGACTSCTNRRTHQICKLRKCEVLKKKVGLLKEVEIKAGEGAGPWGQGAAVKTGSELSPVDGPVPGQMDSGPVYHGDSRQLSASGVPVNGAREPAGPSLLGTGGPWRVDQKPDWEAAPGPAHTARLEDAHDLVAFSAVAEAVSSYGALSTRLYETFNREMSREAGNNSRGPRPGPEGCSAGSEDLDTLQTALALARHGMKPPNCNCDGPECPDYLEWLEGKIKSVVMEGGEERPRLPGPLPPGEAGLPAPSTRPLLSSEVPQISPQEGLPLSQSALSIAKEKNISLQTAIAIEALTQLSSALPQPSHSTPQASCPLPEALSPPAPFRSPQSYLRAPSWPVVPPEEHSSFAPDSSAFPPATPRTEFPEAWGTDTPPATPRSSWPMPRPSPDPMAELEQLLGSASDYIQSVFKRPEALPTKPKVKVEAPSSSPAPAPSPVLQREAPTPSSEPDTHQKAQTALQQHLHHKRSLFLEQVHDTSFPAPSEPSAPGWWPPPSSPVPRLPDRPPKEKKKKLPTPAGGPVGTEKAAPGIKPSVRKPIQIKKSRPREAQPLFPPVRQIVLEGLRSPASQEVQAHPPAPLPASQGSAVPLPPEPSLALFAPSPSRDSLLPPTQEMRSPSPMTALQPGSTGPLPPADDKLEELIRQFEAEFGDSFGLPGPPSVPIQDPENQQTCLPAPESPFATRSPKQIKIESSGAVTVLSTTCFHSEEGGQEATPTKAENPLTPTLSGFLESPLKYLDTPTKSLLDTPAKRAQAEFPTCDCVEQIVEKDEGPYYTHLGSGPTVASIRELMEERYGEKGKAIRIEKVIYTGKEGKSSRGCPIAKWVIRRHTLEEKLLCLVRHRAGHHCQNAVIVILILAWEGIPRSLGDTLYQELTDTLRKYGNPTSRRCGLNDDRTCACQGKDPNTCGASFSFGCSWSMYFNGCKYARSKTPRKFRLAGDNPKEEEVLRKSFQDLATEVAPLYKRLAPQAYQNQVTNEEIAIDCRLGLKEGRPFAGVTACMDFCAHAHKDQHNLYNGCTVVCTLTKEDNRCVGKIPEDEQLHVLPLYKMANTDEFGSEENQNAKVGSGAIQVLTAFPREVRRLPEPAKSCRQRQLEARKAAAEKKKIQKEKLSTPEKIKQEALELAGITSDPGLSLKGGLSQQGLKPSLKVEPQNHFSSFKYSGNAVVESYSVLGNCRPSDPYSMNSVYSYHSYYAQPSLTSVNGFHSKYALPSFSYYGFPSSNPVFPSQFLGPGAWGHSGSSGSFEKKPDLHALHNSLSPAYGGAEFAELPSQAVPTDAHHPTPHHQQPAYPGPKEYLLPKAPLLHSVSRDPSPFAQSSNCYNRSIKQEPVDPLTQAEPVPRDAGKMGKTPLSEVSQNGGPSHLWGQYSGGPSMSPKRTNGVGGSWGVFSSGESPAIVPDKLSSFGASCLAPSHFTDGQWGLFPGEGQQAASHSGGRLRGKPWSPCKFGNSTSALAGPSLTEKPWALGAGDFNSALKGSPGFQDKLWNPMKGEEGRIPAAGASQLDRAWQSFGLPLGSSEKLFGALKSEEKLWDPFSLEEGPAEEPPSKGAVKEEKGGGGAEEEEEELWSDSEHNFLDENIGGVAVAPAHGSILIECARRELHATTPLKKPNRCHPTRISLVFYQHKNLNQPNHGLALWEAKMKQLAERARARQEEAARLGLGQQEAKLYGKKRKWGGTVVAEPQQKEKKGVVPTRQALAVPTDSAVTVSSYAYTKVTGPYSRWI

T1 sequence (Q8NFU7 whole entry): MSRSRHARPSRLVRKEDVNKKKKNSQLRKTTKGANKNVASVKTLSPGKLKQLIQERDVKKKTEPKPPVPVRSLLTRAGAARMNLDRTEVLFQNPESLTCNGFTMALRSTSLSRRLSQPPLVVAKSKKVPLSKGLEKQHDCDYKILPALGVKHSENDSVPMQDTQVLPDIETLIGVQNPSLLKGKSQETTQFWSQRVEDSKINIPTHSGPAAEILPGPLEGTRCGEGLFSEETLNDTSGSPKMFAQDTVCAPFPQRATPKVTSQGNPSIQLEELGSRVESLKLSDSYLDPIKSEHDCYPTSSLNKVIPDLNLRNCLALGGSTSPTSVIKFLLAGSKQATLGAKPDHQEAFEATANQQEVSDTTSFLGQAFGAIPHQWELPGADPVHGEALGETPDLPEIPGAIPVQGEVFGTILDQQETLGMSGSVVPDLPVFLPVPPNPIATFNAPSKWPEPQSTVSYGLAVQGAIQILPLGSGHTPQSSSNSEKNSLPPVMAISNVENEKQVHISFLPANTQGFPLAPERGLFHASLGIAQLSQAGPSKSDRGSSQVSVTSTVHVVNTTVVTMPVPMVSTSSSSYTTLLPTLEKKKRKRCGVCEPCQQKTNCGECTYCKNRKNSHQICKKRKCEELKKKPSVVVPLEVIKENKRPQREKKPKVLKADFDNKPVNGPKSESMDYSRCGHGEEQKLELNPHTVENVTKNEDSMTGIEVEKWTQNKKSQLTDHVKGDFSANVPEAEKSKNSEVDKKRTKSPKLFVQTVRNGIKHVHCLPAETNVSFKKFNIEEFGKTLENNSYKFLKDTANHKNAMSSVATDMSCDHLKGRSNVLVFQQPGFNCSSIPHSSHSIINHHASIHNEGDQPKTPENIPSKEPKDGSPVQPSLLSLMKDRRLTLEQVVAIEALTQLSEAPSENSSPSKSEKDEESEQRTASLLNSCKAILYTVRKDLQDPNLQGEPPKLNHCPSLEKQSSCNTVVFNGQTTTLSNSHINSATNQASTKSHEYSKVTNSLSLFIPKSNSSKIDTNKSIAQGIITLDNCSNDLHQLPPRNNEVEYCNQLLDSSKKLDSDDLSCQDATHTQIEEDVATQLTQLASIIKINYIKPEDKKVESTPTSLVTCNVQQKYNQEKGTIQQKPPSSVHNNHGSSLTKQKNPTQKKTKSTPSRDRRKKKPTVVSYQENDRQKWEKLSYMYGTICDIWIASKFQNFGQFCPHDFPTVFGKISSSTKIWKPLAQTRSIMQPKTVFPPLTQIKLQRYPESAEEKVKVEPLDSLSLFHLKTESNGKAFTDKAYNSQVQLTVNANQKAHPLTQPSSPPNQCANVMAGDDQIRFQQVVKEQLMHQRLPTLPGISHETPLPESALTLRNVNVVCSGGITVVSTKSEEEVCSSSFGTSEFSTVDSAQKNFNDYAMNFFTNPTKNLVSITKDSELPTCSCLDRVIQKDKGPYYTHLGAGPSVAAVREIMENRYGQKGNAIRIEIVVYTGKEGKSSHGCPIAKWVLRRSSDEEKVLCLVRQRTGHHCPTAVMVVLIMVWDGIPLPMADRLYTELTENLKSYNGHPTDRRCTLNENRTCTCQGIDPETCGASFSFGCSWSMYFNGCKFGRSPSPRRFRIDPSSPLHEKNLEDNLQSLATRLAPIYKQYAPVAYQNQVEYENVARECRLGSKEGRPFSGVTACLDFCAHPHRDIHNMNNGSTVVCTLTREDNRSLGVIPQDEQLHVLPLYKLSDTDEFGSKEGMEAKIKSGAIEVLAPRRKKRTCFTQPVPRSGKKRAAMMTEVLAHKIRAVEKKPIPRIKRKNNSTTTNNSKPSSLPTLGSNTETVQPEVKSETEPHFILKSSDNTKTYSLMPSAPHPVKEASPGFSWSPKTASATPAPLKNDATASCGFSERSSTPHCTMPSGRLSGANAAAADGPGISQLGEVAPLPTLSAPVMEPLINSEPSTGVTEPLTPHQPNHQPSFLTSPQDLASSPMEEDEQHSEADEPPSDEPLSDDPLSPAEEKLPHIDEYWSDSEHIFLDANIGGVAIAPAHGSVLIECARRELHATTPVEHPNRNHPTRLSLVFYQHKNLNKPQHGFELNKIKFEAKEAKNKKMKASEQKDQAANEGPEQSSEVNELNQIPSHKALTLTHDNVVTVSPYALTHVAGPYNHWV

binding result [1]: no binding
binding result [2]: no binding
B1: endogenous AR in C4-2CON and C4-2ENZ-R cells (receptor, human, UniProt P10275 1-920, looked up)
chain: MEVQLGLGRVYPRPPSKTYRGAFQNLFQSVREVIQNPGPRHPEAASAAPPGASLLLLQQQQQQQQQQQQQQQQQQQQQQQETSPRQQQQQQGEDGSPQAHRRGPTGYLVLDEEQQPSQPQSALECHPERGCVPEPGAAVAASKGLPQQLPAPPDEDDSAAPSTLSLLGPTFPGLSSCSADLKDILSEASTMQLLQQQQQEAVSEGSSSGRAREASGAPTSSKDNYLGGTSTISDNAKELCKAVSVSMGLGVEALEHLSPGEQLRGDCMYAPLLGVPPAVRPTPCAPLAECKGSLLDDSAGKSTEDTAEYSPFKGGYTKGLEGESLGCSGSAAAGSSGTLELPSTLSLYKSGALDEAAAYQSRDYYNFPLALAGPPPPPPPPHPHARIKLENPLDYGSAWAAAAAQCRYGDLASLHGAGAAGPGSGSPSAAASSSWHTLFTAEEGQLYGPCGGGGGGGGGGGGGGGGGGGGGGGEAGAVAPYGYTRPPQGLAGQESDFTAPDVWYPGGMVSRVPYPSPTCVKSEMGPWMDSYSGPYGDMRLETARDHVLPIDYYFPPQKTCLICGDEASGCHYGALTCGSCKVFFKRAAEGKQKYLCASRNDCTIDKFRRKNCPSCRLRKCYEAGMTLGARKLKKLGNLKLQEEGEASSTTSPTEETTQKLTVSHIEGYECQPIFLNVLEAIEPGVVCAGHDNNQPDSFAALLSSLNELGERQLVHVVKWAKALPGFRNLHVDDQMAVIQYSWMGLMVFAMGWRSFTNVNSRMLYFAPDLVFNEYRMHKSRMYSQCVRMRHLSQEFGWLQITPQEFLCMKALLLFSIIPVDGLKNQKFFDELRMNYIKELDRIIACKRKNPTSCSRRFYQLTKLLDSVQPIARELHQFTFDLLIKSHMVSVDFPEMMAEIISVQVPKILSGKVKPIYFHTQ
notes: also called androgen receptor; ARFL

Source: patent US20210003577A1 (MAYO FOUNDATION FOR MEDICAL EDUCATION AND RESEARCH, published 2021)
